Common to all, as to assay type: biochemical
The nature of data set [1]: ω-transaminase enzyme activity assay (N5-acetyl-1,5-diaminopentane to N5-acetyl-5-aminopentanal), L-alanine formation by RP-HPLC. Conditions: for ω-transaminase activity converting N5-acetyl-1,5-diaminopentane to N5-acetyl-5-aminopentanal (substrate acceptance): cell free extract, 10 mM N5-acetyl-1,5-diaminopentane, 10 mM pyruvate, pH 7.5, 25° C., 4 h, against empty vector control (FIG. 15); for ω-transaminase acceptance of N5-acetyl-5-aminopentanal forming N5-acetyl-1,5-diaminopentane, concluded from reversibility: concluded from reversibility of the ω-transaminase activity (Example 1). As to the method:
The activity of the N-terminal His-tagged ω-transaminases of SEQ ID NOs: 8, 10-13 (see Example 3, and FIG. 10) for converting N5-acetyl-1,5-diaminopentane to N5-acetyl-5-aminopentanal was assayed using a buffer composed of a final concentration of 50 mM HEPES buffer (pH=7.5), 10 mM N5-acetyl-1,5-diaminopentane, 10 mM pyruvate and 100 μM pyridoxyl 5′ phosphate. Each enzyme activity assay reaction was initiated by adding a cell free extract of the ω-transaminase or the empty vector control to the assay buffer containing the N5-acetyl-1,5-diaminopentane then incubated at 25° C. for 4 h, with shaking at 250 rpm. The formation of L-alanine was quantified via RP-HPLC.

The nature of data set [2]: ω-transaminase enzyme activity assay, forward direction (glutarate semialdehyde to 5-aminopentanoate), pyruvate formation by RP-HPLC. To be noted: for ω-transaminase acceptance of glutarate semialdehyde, synthesizing 5-aminopentanoate, concluded from reversibility: concluded from confirmed reversibility of the ω-transaminase activity. On the procedure:
(§1) A nucleotide sequence encoding an N-terminal His-tag was added to the genes from Chromobacterium violaceum and Rhodobacter sphaeroides encoding the ω-transaminases of SEQ ID NOs: 8 and 10 respectively (see FIG. 10) such that N-terminal HIS tagged ω-transaminases could be produced. Each of the resulting modified genes was cloned into a pET21a expression vector under control of the T7 promoter and each expression vector was transformed into a BL21[DE3] E. coli host. The resulting recombinant E. coli strains were cultivated at 37° C. in a 250 mL shake flask culture containing 50 mL LB media and antibiotic selection pressure, with shaking at 230 rpm. Each culture was induced overnight at 16° C. using 1 mM IPTG.
(§2) The pellet from each induced shake flask culture was harvested via centrifugation. Each pellet was resuspended and lysed via sonication. The cell debris was separated from the supernatant via centrifugation and the cell free extract was used immediately in enzyme activity assays.
Enzyme activity in the forward direction (i.e., glutarate semialdehyde to 5-aminopentanoate) was confirmed for the transaminase of SEQ ID NO 10. Enzyme activity assays were performed in a buffer composed of a final concentration of 50 mM HEPES buffer (pH=7.5), 10 mM glutarate semialdehyde, 10 mM L-alanine and 100 μM pyridoxyl 5′ phosphate. Each enzyme activity assay reaction was initiated by adding a cell free extract of the ω-transaminase gene product or the empty vector control to the assay buffer containing the glutarate semialdehyde and incubated at 25° C. for 4 h, with shaking at 250 rpm. The formation of pyruvate was quantified via RP-HPLC.

Data set [3] is described as follows: ω-transaminase enzyme activity assay, reverse direction (5-aminopentanoate to glutarate semialdehyde), L-alanine formation from pyruvate by RP-HPLC. To be noted: cell free extract, 10 mM 5-aminopentanoate, 10 mM pyruvate, pH 7.5, 25° C., 4 h, against empty vector control (FIG. 18). As to the method:
as §1, §2
Enzyme activity assays in the reverse direction (i.e., 5-aminopentanoate to glutarate semialdehyde) were performed in a buffer composed of a final concentration of 50 mM HEPES buffer (pH=7.5), 10 mM 5-aminopentanoate, 10 mM pyruvate and 100 μM pyridoxyl 5′ phosphate. […] The formation of L-alanine from pyruvate was quantified via RP-HPLC.

Data set [4] is described as follows: carboxylate reductase enzyme activity assay (glutarate semialdehyde to pentanedial), NADPH consumption at 340 nm. Conditions: purified enzyme enhanced by gene product of sfp, 2 mM glutarate semialdehyde, 1 mM ATP, 1 mM NADPH, pH 7.5, room temperature, 20 min, against empty vector control (FIG. 16). As to the method: The N-terminal His-tagged carboxylate reductase of SEQ ID NO 7 (see Example 3 and FIG. 10) was assayed using glutarate semialdehyde as substrate. The enzyme activity assay was performed in triplicate in a buffer composed of a final concentration of 50 mM HEPES buffer (pH=7.5), 2 mM glutarate semialdehyde, 10 mM MgCl2, 1 mM ATP and 1 mM NADPH. The enzyme activity assay reaction was initiated by adding purified carboxylate reductase and phosphopantetheine transferase or the empty vector control to the assay buffer containing the glutarate semialdehyde and then incubated at room temperature for 20 min. The consumption of NADPH was monitored by absorbance at 340 nm.

B1: SEQ ID NO 10: Pseudomonas syringae ω-transaminase (Genbank Accession No. AAY39893.1), N-terminal HIS tagged; b286 says Rhodobacter sphaeroides (protein, listed as Pseudomonas syringae)
chain: MSANNPQTLEWQALSSEHHLAPFSDYKQLKEKGPRIITRAEGVYLWDSEGNKILDGMSGLWCVAIGYGREELADAASKQMRELPYYNLFFQTAHPPVLELAKAISDIAPEGMNHVFFTGSGSEGNDTMLRMVRHYWALKGQPNKKTIISRVNGYHGSTVAGASLGGMTYMHEQGDLPIPGVVHIPQPYWFGEGGDMTPDEFGIWAAEQLEKKILELGVENVGAFIAEPIQGAGGVIVPPDSYWPKIKEILSRYDILFAADEVICGFGRTSEWFGSDFYGLRPDMMTIAKGLTSGYVPMGGLIVRDEIVAVLNEGGDFNHGFTYSGHPVAAAVALENIRILREEKIVERVRSETAPYLQKRLRELSDHPLVGEVRGVGLLGAIELVKDKTTRERYTDKGAGMICRTFCFDNGLIMRAVGDTMIIAPPLVISFAQIDELVEKARTCLDLTLAVLQG
modifications: N-terminal His tag
notes: b286 says Rhodobacter sphaeroides
Regarding B1, in data set [1], the “ω-transaminase activity converting N5-acetyl-1,5-diaminopentane to N5-acetyl-5-aminopentanal (substrate acceptance)” value was “accepted N5-acetyl-1,5-diaminopentane as substrate” and the “ω-transaminase acceptance of N5-acetyl-5-aminopentanal forming N5-acetyl-1,5-diaminopentane, concluded from reversibility” value was “accept N5-acetyl-5-aminopentanal as substrate forming N5-acetyl-1,5-diaminopentane”. The “ω-transaminase activity converting glutarate semialdehyde to 5-aminopentanoate (substrate acceptance)” value in data set [2] (cell free extract, 10 mM glutarate semialdehyde, 10 mM L-alanine, pH 7.5, 25° C., 4 h, against empty vector control (FIG. 19)) is “accepted glutarate semialdehyde as substrate”. Moreover, the “ω-transaminase acceptance of glutarate semialdehyde, synthesizing 5-aminopentanoate, concluded from reversibility” value in data set [2] is “accepted glutarate semialdehyde as substrate and synthesized 5-aminopentanoate”.

B2: SEQ ID NO 8: Chromobacterium violaceum ω-transaminase (Genbank Accession No. AAQ59697.1), N-terminal HIS tagged (protein, listed as Chromobacterium violaceum)
chain: MQKQRTTSQWRELDAAHHLHPFTDTASLNQAGARVMTRGEGVYLWDSEGNKIIDGMAGLWCVNVGYGRKDFAEAARRQMEELPFYNTFFKTTHPAVVELSSLLAEVTPAGFDRVFYTNSGSESVDTMIRMVRRYWDVQGKPEKKTLIGRWNGYHGSTIGGASLGGMKYMHEQGDLPIPGMAHIEQPWWYKHGKDMTPDEFGVVAARWLEEKILEIGADKVAAFVGEPIQGAGGVIVPPATYWPEIERICRKYDVLLVADEVICGFGRTGEWFGHQHFGFQPDLFTAAKGLSSGYLPIGAVFVGKRVAEGLIAGGDFNHGFTYSGHPVCAAVAHANVAALRDEGIVQRVKDDIGPYMQKRWRETFSRFEHVDDVRGVGMVQAFTLVKNKAKRELFPDFGEIGTLCRDIFFRNNLIMRACGDHIVSAPPLVMTRAEVDEMLAVAERCLEEFEQTLKARGLA
modifications: N-terminal His tag
For B2, in data set [1], the “ω-transaminase activity converting N5-acetyl-1,5-diaminopentane to N5-acetyl-5-aminopentanal (substrate acceptance)” value was “accepted N5-acetyl-1,5-diaminopentane as substrate” and the “ω-transaminase acceptance of N5-acetyl-5-aminopentanal forming N5-acetyl-1,5-diaminopentane, concluded from reversibility” value is given as “accept N5-acetyl-5-aminopentanal as substrate forming N5-acetyl-1,5-diaminopentane”. Moreover, in data set [2], the “ω-transaminase acceptance of glutarate semialdehyde, synthesizing 5-aminopentanoate, concluded from reversibility” value was “accepted glutarate semialdehyde as substrate and synthesized 5-aminopentanoate”. In addition, the “ω-transaminase activity converting 5-aminopentanoate to glutarate semialdehyde (substrate acceptance)” value in data set [3] is recorded as “accepted 5-aminopentanote as substrate”.

B3: SEQ ID NO 7: Segniliparus rotundus carboxylate reductase (Genbank Accession No. ADG98140.1), N-terminal HIS tagged (protein, listed as Segniliparus rotundus)
chain: MTQSHTQGPQASAAHSRLARRAAELLATDPQAAATLPDPEVVRQATRPGLRLAERVDAILSGYADRPALGQRSFQTVKDPITGRSSVELLPTFDTITYRELRERATAIASDLAHHPQAPAKPGDFLASIGFISVDYVAIDIAGVFAGLTAVPLQTGATLATLTAITAETAPTLFAASIEHLPTAVDAVLATPSVRRLLVFDYRAGSDEDREAVEAAKRKIADAGSSVLVDVLDEVIARGKSAPKAPLPPATDAGDDSLSLLIYTSGSTGTPKGAMYPERNVAHFWGGVWAAAFDEDAAPPVPAINITFLPLSHVASRLSLMPTLARGGLMHFVAKSDLSTLFEDLKLARPTNLFLVPRVVEMLYQHYQSELDRRGVQDGTREAEAVKDDLRTGLLGGRILTAGFGSAPLSAELAGFIESLLQIHLVDGYGSTEAGPVWRDGYLVKPPVTDYKLIDVPELGYFSTDSPHPRGELAIKTQTILPGYYKRPETTAEVFDEDGFYLTGDVVAQIGPEQFAYVDRRKNVLKLSQGEFVTLAKLEAAYSSSPLVRQLFVYGSSERSYLLAVIVPTPDALKKFGVGEAAKAALGESLQKIARDEGLQSYEVPRDFIIETDPFTVENGLLSDARKSLRPKLKEHYGERLEAMYKELADGQANELRDIRRGVQQRPTLETVRRAAAAMLGASAAEIKPDAHFTDLGGDSLSALTFSNFLHDLFEVDVPVGVIVSAANTLGSVAEHIDAQLAGGRARPTFATVHGKGSTTIKASDLTLDKFIDEQTLEAAKHLPKPADPPRTVLLTGANGWLGRFLALEWLERLAPAGGKLITIVRGKDAAQAKARLDAAYESGDPKLAGHYQDLAATTLEVLAGDFSEPRLGLDEATWNRLADEVDFISHPGALVNHVLPYNQLFGPNVAGVAEIIKLAITTRIKPVTYLSTVAVAAGVEPSALDEDGDIRTVSAERSVDEGYANGYGNSKWGGEVLLREAHDRTGLPVRVFRSDMILAHQKYTGQVNATDQFTRLVQSLLATGLAPKSFYELDAQGNRQRAHYDGIPVDFTAESITTLGGDGLEGYRSYNVFNPHRDGVGLDEFVDWLIEAGHPITRIDDYDQWLSRFETSLRGLPESKRQASVLPLLHAFARPGPAVDGSPFRNTVFRTDVQKAKIGAEHDIPHLGKALVLKYADDIKQLGLL
modifications: N-terminal His tag
Consider B3, for which, in data set [4], the “carboxylate reductase activity converting glutarate semialdehyde to pentanedial (substrate acceptance)” value is on record as “accepted glutarate semialdehyde as substrate”.

These data come from patent US9957535B2, “Methods, reagents and cells for biosynthesizing compounds” (INVISTA North America S.á r.l., priority 2014, dated 2018).
